Test results reported in publication PMC8953729.

Assays:
Tyr11 (position 11, …--) = experiment: potentiometry; details: metal-free peptide
[1] = molecular target: Nterm1 (position 1, -----MDHSHH); experiment: potentiometry

For MDHSHHMGMSYMDS, the pKa (Tyr11 (position 11, …--); 298.0 ± 0.2 K, 0.10 M (KNO3), none (titration with 0.1 M KOH under argon)) is given as 9.64, the pKa (Tyr11 (position 11, …--); cited from earlier work) is given as 9.84 and the pKa ([1]; 298 K, 0.1 mol dm^-3 (KNO3), mononuclear Ag+ complex ([AgLH2] to [AgLH]), Ag+/peptide ratios 1:1, 1:2 and 2:1) is given as 7.33. For the same protein, the pKa ([1]; 298.0 ± 0.2 K, 0.10 M (KNO3), none (titration with 0.1 M KOH under argon), metal-free peptide) was 7.63 and the pKa ([1]; metal-free peptide, cited from earlier work) was 7.46.
